B1: factor H-related protein 5 (FHR-5), recombinant (natural protein)
chain: EGTLCDFPKIHHGFLYDEEDYNPFSQVPTGEVFYYSCEYNFVSPSKSFWTRITCTEEGWSPTPKCLRMCSFPFVKNGHSESSGLIHLEGDTVQIICNTGYSLQNNEKNISCVERGWSTPPICSFTKGECHVPILEANVDAQPKKESYKVGDVLKFSCRKNLIRVGSDSVQCYQFGWSPNFPTCKGQVRSCGPPPQLSNGEVKEIRKEEYGHNEVVEYDCNPNFIINGPKKIQCVDGEWTTLPTCVEQVKTCGYIPELEYGYVQPSVPPYQHGVSVEVNCRNEYAMIGNNMITCINGIWTELPMCVATHQLKRCKIAGVNIKTLLKLSGKEFNHNSRIRYRCSDIFRYRHSVCINGKWNPEVDCTEKREQFCPPPPQIPNAQNMTTTVNYQDGEKVAVLCKENYLLPEAKEIVCKDGRWQSLPRCVESTAYCGPPPSINNGDTTSFPLSVYPPGSTVTYRCQSFYKLQGSVTVTCRNKQWSEPPRCLDPCVVSEENMNKNNIQLKWRNDGKLYAKTGDAVEFQCKFPHKAMISSPPFRAICQEGKFEYPICE
B2: factor H-related protein 1 (FHR-1), recombinant (natural protein)
chain: EATFCDFPKINHGILYDEEKYKPFSQVPTGEVFYYSCEYNFVSPSKSFWTRITCTEEGWSPTPKCLRLCFFPFVENGHSESSGQTHLEGDTVQIICNTGYRLQNNENNISCVERGWSTPPKCRSTDTSCVNPPTVQNAHILSRQMSKYPSGERVRYECRSPYEMFGDEEVMCLNGNWTEPPQCKDSTGKCGPPPPIDNGDITSFPLSVYAPASSVEYQCQNLYQLEGNKRITCRNGQWSEPPKCLHPCVISREIMENYNIALRWTAKQKLYLRTGESAEFVCKRGYRLSSRSHTLRTTCWDGKLEYPTCAKR
B3: FH_(19-20), the C-terminal part of factor H (SCR 19-20), recombinant (domain or fragment)
chain: KDSTGKCGPPPPIDNGDITSFPLSVYAPASSVEYQCQNLYQLEGNKRITCRNGQWSEPPKCLHPCVISREIMENYNIALRWTAKQKLYSRTGESVEFVCKRGYRLSSRSHTLRTTCWDGKLEYPTCAKR
B4: factor H-related protein 2 (FHR-2), recombinant (natural protein)
chain: EAMFCDFPKINHGILYDEEKYKPFSQVPTGEVFYYSCEYNFVSPSKSFWTRITCAEEGWSPTPKCLRLCFFPFVENGHSESSGQTHLEGDTVQIICNTGYRLQNNENNISCVERGWSTPPKCRSTISAEKCGPPPPIDNGDITSFLLSVYAPGSSVEYQCQNLYQLEGNNQITCRNGQWSEPPKCLDPCVISQEIMEKYNIKLKWTNQQKLYSRTGDIVEFVCKSGYHPTKSHSFRAMCQNGKLVYPSCEEK
B5: Factor H (FH), plasma purified (natural protein)
chain: EDCNELPPRRNTEILTGSWSDQTYPEGTQAIYKCRPGYRSLGNVIMVCRKGEWVALNPLRKCQKRPCGHPGDTPFGTFTLTGGNVFEYGVKAVYTCNEGYQLLGEINYRECDTDGWTNDIPICEVVKCLPVTAPENGKIVSSAMEPDREYHFGQAVRFVCNSGYKIEGDEEMHCSDDGFWSKEKPKCVEISCKSPDVINGSPISQKIIYKENERFQYKCNMGYEYSERGDAVCTESGWRPLPSCEEKSCDNPYIPNGDYSPLRIKHRTGDEITYQCRNGFYPATRGNTAKCTSTGWIPAPRCTLKPCDYPDIKHGGLYHENMRRPYFPVAVGKYYSYYCDEHFETPSGSYWDHIHCTQDGWSPAVPCLRKCYFPYLENGYNQNYGRKFVQGKSIDVACHPGYALPKAQTTVTCMENGWSPTPRCIRVKTCSKSSIDIENGFISESQYTYALKEKAKYQCKLGYVTADGETSGSITCGKDGWSAQPTCIKSCDIPVFMNARTKNDFTWFKLNDTLDYECHDGYESNTGSTTGSIVCGYNGWSDLPICYERECELPKIDVHLVPDRKKDQYKVGEVLKFSCKPGFTIVGPNSVQCYHFGLSPDLPICKEQVQSCGPPPELLNGNVKEKTKEEYGHSEVVEYYCNPRFLMKGPNKIQCVDGEWTTLPVCIVEESTCGDIPELEHGWAQLSSPPYYYGDSVEFNCSESFTMIGHRSITCIHGVWTQLPQCVAIDKLKKCKSSNLIILEEHLKNKKEFDHNSNIRYRCRGKEGWIHTVCINGRWDPEVNCSMAQIQLCPPPPQIPNSHNMTTTLNYRDGEKVSVLCQENYLIQEGEEITCKDGRWQSIPLCVEKIPCSQPPQIEHGTINSSRSSQESYAHGTKLSYTCEGGFRISEENETTCYMGKWSSPPQCEGLPCKSPPEISHGVVAHMSDSYQYGEEVTYKCFEGFGIDGPAIAKCLGEKWSHPPSCIKTDCLSLPSFENAIPMGEKKDVYKAGEQVTYTCATYYKMDGASNVTCINSRWTGRPTCRDTSCVNPPTVQNAYIVSRQMSKYPSGERVRYQCRSPYEMFGDEEVMCLNGNWTEPPQCKDSTGKCGPPPPIDNGDITSFPLSVYAPASSVEYQCQNLYQLEGNKRITCRNGQWSEPPKCLHPCVISREIMENYNIALRWTAKQKLYSRTGESVEFVCKRGYRLSSRSHTLRTTCWDGKLEYPTCAKR

Key:
[1] = target: C3b (human, UniProt P01024); test: SPR
Chain of C3b (P01024 23-667, chain 1 of 2): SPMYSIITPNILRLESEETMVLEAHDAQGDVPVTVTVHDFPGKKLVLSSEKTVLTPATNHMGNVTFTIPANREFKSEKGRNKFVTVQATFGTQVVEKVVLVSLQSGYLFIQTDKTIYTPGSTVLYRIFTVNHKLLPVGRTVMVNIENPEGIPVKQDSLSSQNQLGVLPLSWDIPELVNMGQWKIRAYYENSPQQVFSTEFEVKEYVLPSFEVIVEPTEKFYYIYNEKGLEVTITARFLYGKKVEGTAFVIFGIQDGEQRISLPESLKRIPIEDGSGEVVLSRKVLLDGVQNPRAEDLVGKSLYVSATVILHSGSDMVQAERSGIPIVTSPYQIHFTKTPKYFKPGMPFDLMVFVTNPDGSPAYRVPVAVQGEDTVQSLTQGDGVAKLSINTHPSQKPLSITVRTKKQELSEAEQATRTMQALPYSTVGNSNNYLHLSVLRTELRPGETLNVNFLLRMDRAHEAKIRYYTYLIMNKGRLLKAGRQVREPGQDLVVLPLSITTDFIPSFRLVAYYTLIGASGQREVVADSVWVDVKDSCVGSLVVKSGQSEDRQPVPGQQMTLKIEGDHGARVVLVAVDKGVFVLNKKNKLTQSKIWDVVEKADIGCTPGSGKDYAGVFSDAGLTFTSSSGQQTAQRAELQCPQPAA
Chain of C3b (P01024 749-1663, chain 2 of 2): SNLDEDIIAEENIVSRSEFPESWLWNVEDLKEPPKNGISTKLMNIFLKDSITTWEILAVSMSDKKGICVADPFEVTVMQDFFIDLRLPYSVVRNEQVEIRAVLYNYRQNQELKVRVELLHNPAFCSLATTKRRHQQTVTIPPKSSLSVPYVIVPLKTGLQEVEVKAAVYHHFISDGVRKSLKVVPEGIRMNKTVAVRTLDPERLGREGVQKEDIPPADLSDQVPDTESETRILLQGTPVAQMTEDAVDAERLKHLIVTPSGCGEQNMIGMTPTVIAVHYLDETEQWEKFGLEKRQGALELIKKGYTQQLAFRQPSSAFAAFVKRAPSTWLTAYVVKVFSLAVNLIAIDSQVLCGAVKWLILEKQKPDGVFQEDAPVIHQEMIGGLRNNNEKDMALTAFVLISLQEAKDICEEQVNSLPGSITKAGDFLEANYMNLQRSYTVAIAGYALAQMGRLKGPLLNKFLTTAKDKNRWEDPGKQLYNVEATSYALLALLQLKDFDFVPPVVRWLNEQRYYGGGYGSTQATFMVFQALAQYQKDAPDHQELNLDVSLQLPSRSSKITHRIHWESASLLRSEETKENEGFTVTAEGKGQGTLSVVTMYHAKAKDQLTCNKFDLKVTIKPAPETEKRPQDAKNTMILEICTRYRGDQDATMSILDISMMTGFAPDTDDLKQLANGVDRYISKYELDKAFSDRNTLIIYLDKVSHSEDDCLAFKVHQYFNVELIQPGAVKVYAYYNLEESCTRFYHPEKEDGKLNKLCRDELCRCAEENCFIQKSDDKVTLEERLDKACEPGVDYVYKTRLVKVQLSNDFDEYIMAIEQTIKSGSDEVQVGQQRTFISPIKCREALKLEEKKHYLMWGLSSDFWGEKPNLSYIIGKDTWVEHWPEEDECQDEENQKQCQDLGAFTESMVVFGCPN

[2] = target: the molecule itself; test: SAXS

Row | Binder | binding result [1] | stoichiometry N [2]
1 | B1 | binds | –
2 | B2 | – | 2
3 | B3 | binds | –
4 | B4 | binds | –
5 | B5 | binds | –

Source: paper doi:10.1101/413294 (bioRxiv, 2018)
